Data from a protein production outcome set (Wang et al. 2014).

Assay: label from the status in PepcDB records

Row | Sequence | protein production
1 | MKQPTLAVIMTCHNRRNTTLACLQALYQQKNHFDVYLTDDGSTDGTAEFIKAEYPDVKIFQGDGNLFWVGGMHLAFGEAIKNQYDYYLWLNDDTFLEADALEKLLQVHENLAVEGYGQSIVVGSTQDPITKQATYGGAVKSKKWYSNKFEFLEPTSDVQKCDAMYGNCVLIPHSVTLKVGNIDTAFIHSLGDLDYALRARNLGCHVWVAPGYIGTCNKNSVRNSWVDTKLPVLERLRKILQIKGFPLKPWTTFCSRHSGPFWIFYWFLPYIRAIIGYKNLATSPTFSEDPKETKPEV | failed
2 | MEEGGDFDNYYGADNQSECEYTDWKSSGALIPAIYMLVFLLGTTGNGLVLWTVFRSSREKRRSADIFIASLAVADLTFVVTLPLWATYTYRDYDWPFGTFFCKLSSYLIFVNMYASVFCLTGLSFDRYLAIVRPVANARLRLRVSGAVATAVLWVLAALLAMPVMVLRTTGDLENTTKVQCYMDYSMVATVSSEWAWEVGLGVSSTTVGFVVPFTIMLTCYFFIAQTIAGHFRKERIEGLRKRRRLLSIIVVLVVTFALCWMPYHLVKTLYMLGSLLHWPCDFDLFLMNIFPYCTCISYVNSCLNPFLYAFFDPRFRQACTSMLCCGQSRCAGTSHSSSGEKSASYSSGHSQGPGPNMGKGGEQMHEKSIPYSQETLVVD | not failed
3 | MKIYFEAYGCTLNQGETALYVNKLLNEGNTLVSNPKEADLSIIGTCAVIKKTEDHMMARIQNLSRFGKVEVIGCLAPVKGKTMVEDNVSVIEKDRFRSFQEVIDEVSPVNAEIVSGIPINQGCTGKCNFCVSHIARGKLVSRKPEKIAGQIKILLQRGIKEIKITSLDTAAYGKDIGLRLPHLIRTITEIGDDFRLRVGMMEPKNTLEIVDDLISAYRSEKVFKFLHLPVQSGDDYVLEVMNREYTVSDFIRITGKFREAFPDSTLSTDLIIGYYAENDDSFEKTVQLIEKIRPEIINVTKFSPRELTADFEKRPKPTNILKEQDRMIADMHKEILQEKFSNLIGKTEFVLITENGKGRSMIGRDHAYRPIVIMDKTRKFEFHQVEITGFENTSLIGRIIDLEHHHHHH | failed
4 | MNILSRIFARTPSLRTRVVVATAIGAAIPVLIVGTVVWVGITNDRKERLDRRLDEAAGFAIPFVPRGLDEIPRSPNDQDALITVRRGNVIKSNSDITLPKLQDDYADTYVRGVRYRVRTVEIPGPEPTSVAVGATYDATVAETNNLHRRVLLICTFAIGAAAVFAWLLAAFAVRPFKQLAEQTRSIDAGDEAPRVEVHGASEAIEIAEAMRGMLQRIWNEQNRTKEALASARDFAAVSSHELRTPLTAMRTNLEVLSTLDLPDDQRKEVLNDVIRTQSRIEATLSALERLAQGELSTSDDHVPVDITDLLDRAAHDAARIYPDLDVSLVPSPTCIIVGLPAGLRLAVDNAIANAVKHGGATLVQLSAVSSRAGVEIAIDDNGSGVPEGERQVVFERFSRGSTASHSGSGLGLALVAQQAQLHGGTASLENSPLGGARLVLRLPGPS | not failed
5 | MTDAHTVCPKFESAFQLLGKRWTGLIINVLLTGPKRFKQVAAEIPQMSDRVLAERLKELEEMDICLRQVYPETPVRIEYELTEKGKALQEVMLEVQCWADKWVEVPN | failed
6 | MQKTDGLADRIWVVLVQPKYQGNIGAVARSMKNSGLSKLIIVGNRPDDEAFARSMGGRQILENAEIVDSLEEIVHRFTIVAGTSSTASSNLKRFRRLPVDPETFWKQMESQTGKVALVFGREDDGLRNEELDLCNYFIYIPGNPDYPVYNLSHAVAIVLYVMYRSYVPSDMIQHESIKPEHEVLLMSNILDI | not failed
7 | MQYLSILEALGGLGVFILGMKTMSEGLQKIAGDRFRRHLERIAGNRLTAALLGSTLSSLLQSSSAACIITVGFINAGLISLYQALGILLGTGIGTTLAVQFIAFKISSFALPAVFVGVCLRCFLRRRRWVNAGELILGAGLLFLGLRIMESNLQPLQEYAIVFTHQDMFVSKRIAAVLFGATLTLLVQSGSTAIAVIMALAGSSLVSFETGAAMVIGELLGTSVITAFASIGGTLEAKRTVFFYFMVNLLAVVVVMLVFPSYLSFVTYISPEDIASSAGISRVLANTHTLFSIMSAVIFLPLIGFFARTAPRIIPGSERASSVEARTVFIDPRVLNTPPIALLQARSELRRMAGISLTMYSEMVEQFFRYDARKAVGIRQKENAVDILQRDLTDFLVSLSRRELAPEASMEIPVMLQLIGELEHVADQSEAVLDYLRRKKEEKLLFSNAAMTEIRHLARTVEKLVDLAVETMDNPPPDAVEQGRSLRDDVGRQREAMLDGHIKRLSAGKCSVRAGIIYADMITAFVKIADSSVTIIETRKEFT | failed
8 | SLDDHTRDPTVKAPDGNPSGWRTDGQWEHETLRRAVVHGVRLYNSGEFHESHDCFEDEWYNYGRGNTESKFLHGMVQVAAGAYKHFDFEDDDGMRSLFRTSLQYFRGVPNDYYGVDLLDVRTTVTNALSDPSALHGWQIRLDGEYPTCRPEDIEFAESLEH | not failed
